T1: human IL-25 expressed with a C-terminal myc-myc-hexahistidine tag (human)
T1 construct: also called human IL-25-MMH; hIL-25-MMH
T1 chain: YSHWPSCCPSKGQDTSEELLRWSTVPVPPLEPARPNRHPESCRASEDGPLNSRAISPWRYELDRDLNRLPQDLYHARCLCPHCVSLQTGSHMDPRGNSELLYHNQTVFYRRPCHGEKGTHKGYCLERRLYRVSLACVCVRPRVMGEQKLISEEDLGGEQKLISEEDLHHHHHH

T2: monkey IL-25 expressed with a C-terminal myc-myc-hexahistidine tag (M. fascicularis (cynomolgus monkey))
T2 construct: also called monkey IL-25-MMH; MfIL-25-MMH
T2 chain: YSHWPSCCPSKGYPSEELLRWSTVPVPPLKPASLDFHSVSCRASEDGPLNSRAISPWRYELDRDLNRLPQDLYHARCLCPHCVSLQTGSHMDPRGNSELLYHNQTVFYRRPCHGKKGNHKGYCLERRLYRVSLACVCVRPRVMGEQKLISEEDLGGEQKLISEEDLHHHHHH

T3: rat IL-25 expressed with a C-terminal myc-myc-hexahistidine tag (rat)
T3 construct: also called Rat IL-25-MMH
T3 chain: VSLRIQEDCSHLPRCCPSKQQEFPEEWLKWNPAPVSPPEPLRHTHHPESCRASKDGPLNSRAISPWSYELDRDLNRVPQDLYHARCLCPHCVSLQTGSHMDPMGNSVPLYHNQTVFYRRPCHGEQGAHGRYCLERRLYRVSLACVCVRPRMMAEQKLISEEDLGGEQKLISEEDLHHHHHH

T4: mouse IL-25 expressed with a C-terminal myc-myc-hexahistidine tag (mouse)
T4 construct: also called Mouse IL-25-MMH; mIL-25-MMH
T4 chain: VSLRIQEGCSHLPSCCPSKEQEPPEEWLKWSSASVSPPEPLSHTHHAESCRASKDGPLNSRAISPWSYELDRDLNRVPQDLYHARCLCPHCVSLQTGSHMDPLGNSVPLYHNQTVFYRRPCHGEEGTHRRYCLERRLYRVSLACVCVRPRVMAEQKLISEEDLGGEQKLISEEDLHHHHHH

T5: human IL-25 expressed with a C-terminal myc-myc-hexahistidine tag (human)
T5 construct: also called hIL-25-MMH; Human IL-25-MMH
T5 chain: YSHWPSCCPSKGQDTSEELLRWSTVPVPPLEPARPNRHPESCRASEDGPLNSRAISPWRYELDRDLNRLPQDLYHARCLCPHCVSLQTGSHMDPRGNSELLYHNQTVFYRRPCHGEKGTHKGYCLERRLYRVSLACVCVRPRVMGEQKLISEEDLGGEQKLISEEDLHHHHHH


Experiments:
[1] = target: T1, human IL-25 expressed with a C-terminal …; experiment: SPR Biacore, captured mAb, 25°C;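 as to 100 nM Human IL-25-MMH Bound (RU): biacore 4000 SPR with IL-25-MMH as analyte over purified anti-IL-25 antibodies, association and dissociation rates derived from fitting sensorgrams to a 1:1 binding model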;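 as to 100 nM Monkey IL-25-MMH Bound (RU): Real-time surface plasmon resonance on a Biacore 4000, with IL-25-MMH binding to purified anti-IL-25 antibodies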
Procedure: (§1) Equilibrium dissociation constants (KD values) for IL-25 binding to purified anti-IL-25 antibodies were determined using a real-time surface plasmon resonance biosensor assay on a Biacore 4000 instrument (GE Healthcare). […] All the IL-25 reagents were expressed with a C-terminal myc-myc-hexahistidine tag (referred to herein as “IL-25-MMH”). […] Kinetic association (kₐ) and dissociation (kd) rate constants were determined by fitting the real-time sensorgrams to a 1:1 binding model using Scrubber 2.0c curve fitting software.

[2] = target: T1, human IL-25 expressed with a C-terminal …; experiment: SPR Biacore, captured mAb, 37°C
Procedure: as §1

[3] = target: T2, monkey IL-25 expressed with a …; experiment: SPR Biacore, captured mAb, 25°C;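 as to 100 nM Human IL-25-MMH Bound (RU): biacore 4000 SPR with IL-25-MMH as analyte over purified anti-IL-25 antibodies, association and dissociation rates derived from fitting sensorgrams to a 1:1 binding model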;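 as to 100 nM Monkey IL-25-MMH Bound (RU): Real-time surface plasmon resonance on a Biacore 4000, with IL-25-MMH binding to purified anti-IL-25 antibodies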
Procedure: as §1

[4] = target: T3, rat IL-25 expressed with a C-terminal …; experiment: SPR Biacore, antibody captured, 25C;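 as to 100 nM Rat IL-25-MMH Bound (RU): purified anti-IL-25 antibodies were tested by real-time surface plasmon resonance on a Biacore 4000, with rate constants obtained from sensorgram fits to a 1:1 binding model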
Procedure: as §1

[5] = target: T4, mouse IL-25 expressed with a C-terminal …; experiment: SPR Biacore, antibody captured, 37C;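 as to 100 nM Mouse IL-25-MMH Bound (RU): Real-time sensorgrams of IL-25-MMH binding to purified anti-IL-25 antibodies, rate constants obtained by fitting a 1:1 binding model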
Procedure: as §1

[6] = target: T5, human IL-25 expressed with a C-terminal …; experiment: BLI Octet, hIL-25-MMH captured on anti-Penta-His sensor, 25C
Procedure: Binding competition between anti-IL-25 monoclonal antibodies was determined using a real time, label-free bio-layer interferometry assay on an Octet QK384 biosensor (Pall ForteBio Corp.).
The biosensors were washed in HBST kinetics buffer in between every step of the experiment. The real-time binding response was monitored during the course of the experiment and the binding response at the end of every step was recorded.

[7] = target: T3, rat IL-25 expressed with a C-terminal …; experiment: SPR Biacore, antibody captured, 37C;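 as to 100 nM Mouse IL-25-MMH Bound (RU): Real-time sensorgrams of IL-25-MMH binding to purified anti-IL-25 antibodies, rate constants obtained by fitting a 1:1 binding model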
[8] = target: T4, mouse IL-25 expressed with a C-terminal …; experiment: SPR Biacore, antibody captured, 25C;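 as to 100 nM Rat IL-25-MMH Bound (RU): purified anti-IL-25 antibodies were tested by real-time surface plasmon resonance on a Biacore 4000, with rate constants obtained from sensorgram fits to a 1:1 binding model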

| Binder | 100 nM Human IL-25-MMH Bound (RU) [1] [RU] | Kd [1] [pM] | koff [1] [s⁻¹] | kon [1] [M⁻¹ s⁻¹] | t½ [1] [h] | 100 nM Human IL-25-MMH Bound (RU) [2] [RU] | Kd [2] [pM] | koff [2] [s⁻¹] | kon [2] [M⁻¹ s⁻¹] | t½ [2] [h] | 100 nM Monkey IL-25-MMH Bound (RU) [3] [RU] | Kd [3] [pM] | koff [3] [s⁻¹] | kon [3] [M⁻¹ s⁻¹] | t½ [3] [h] | also measured |
| --- | --- | --- | --- | --- | --- | --- | --- | --- | --- | --- | --- | --- | --- | --- | --- | --- |
| H1M11009N (antibody, mouse IgG1, V domains shown, H1M prefix = mouse IgG1 Fc) VH: EVQLVESGGGLVEPGGSLRLSCVASGFTFSNAWMNWVRQAPGKGLEWVGHIERKTDGGTTDFAAPVKGRFTISRDDSKNTLYLQMNSLKTEDTAVYYCTTVGPYSVPFDYWGQGTLVTVSS VL: not shown | – | – | – | – | – | – | – | – | – | – | – | – | – | – | – | 100 nM Rat IL-25-MMH Bound (RU) [4]: -1 RU; 100 nM Mouse IL-25-MMH Bound (RU) [5]: 2 RU; 50 ug/mL mAb-1 Binding (nm) [6]: 1.42 nm; 100 nM Rat IL-25-MMH Bound (RU) [7]: 3 RU; 100 nM Mouse IL-25-MMH Bound (RU) [8]: 0 RU; binding result [8]: no binding (tested: 100 nM) |
| H4H10863P (antibody, human IgG4, V domains shown) VH: QVQLVQSGAEVKKPGASVKVSCKASGYTFSSYGISWVRQAPGQGLEWMGWISAYNDNTQYAQKFQGRVTMTTDTSTSTAYMELRSLRSDDTAVYYCARVPLQWFGESFDHWGQGTLVTVSS VL: DIQMTQSPSSLSASVGDRVTITCRASQDINNYLNWFQQKPGKAPKLLIFSTSSLQSGVPSRFSGSGSGTDFTLTISSLQSEDFATYYCQQTFITPLTFGGGTKVEIK | 34 | 279 | 7.25e-05 | 260000 | 2.65 | 46 | 128 | 7.78e-05 | 606000 | 2.48 | 39 | 199 | 6.83e-05 | 343000 | 2.82 | – |
| H4H10871P (antibody, human IgG4, V domains shown) VH: QVQLVQSGAEVMKPGASVKVSCKSSDFAFTTYGISWVRQAPGQGLEWMGWISAYNGNTNYEQRFQGRITMTTDTSTTTVYMELRSLRSDDTAVYYCARDPDYCSSNTCSDAFDLWGQGTMVTVSS VL: DIQMTQSPSSLSASVRDRVTITCRASQGITNYLAWYQQKPGKVPKVLIYAASTLQSGVPSRFSGSGSGTEFTLAISSLQPEDVATYFCQQYGSAPWTFGQGTKVEIK | 38 | 85.1 | 6.38e-05 | 749000 | 3.02 | 49 | 27.6 | 3.18e-05 | 1.15e+06 | 6.05 | 42 | 96.5 | 6.06e-05 | 628000 | 3.18 | – |

Further lines, with some results ahead:

| 100 nM Human IL-25-MMH Bound (RU) [1] [RU] | Kd [1] [pM] | koff [1] [s⁻¹] | kon [1] [M⁻¹ s⁻¹] | t½ [1] [h] | 100 nM Human IL-25-MMH Bound (RU) [2] [RU] | Kd [2] [pM] | koff [2] [s⁻¹] | kon [2] [M⁻¹ s⁻¹] | t½ [2] [h] | 100 nM Monkey IL-25-MMH Bound (RU) [3] [RU] | Kd [3] [pM] | koff [3] [s⁻¹] | kon [3] [M⁻¹ s⁻¹] | t½ [3] [h] | Binder | also measured |
| --- | --- | --- | --- | --- | --- | --- | --- | --- | --- | --- | --- | --- | --- | --- | --- | --- |
| 49 | 228 | 0.000109 | 478000 | 1.77 | 55 | 149 | 0.00012 | 809000 | 1.6 | 54 | 186 | 7.77e-05 | 417000 | 2.48 | H4H10905P (antibody, human IgG4, V domains shown) VH: QVQLVQSGAEVKKPGTSVKVSCKASGYTFTNYGISWVRQAPGQGLEWLGWISAYNDNTDYAQKLQARVTMTTDTFTSTAYMDLRSLRSDDTAVYYCARVPITGTTSSFDFWGQGTLVTVSS VL: DIQMTQSPSSLSASVGDRVTISCRASQTIYSYLNWFQQKPGKAPKLLIYDASSLQSGVPSRFSGSGSGTHFTLTISSLQPEDFATYFCQQTYSTPLTFGGGTKVEIK | – |
| 39 | 126 | 7.87e-05 | 623000 | 2.45 | 48 | 218 | 0.000226 | 1.04e+06 | 0.85 | 42 | 74.9 | 8.43e-05 | 1.13e+06 | 2.28 | H4H10897P (antibody, human IgG4, V domains shown) VH: QVQLQESGPGLVKPSETLSLTCTVSGGSISDYYWSWIRQPPGKGLEWIGHIYYSGSTNHNPSLKSRVAISVDTSKNQFSLRLYSVTAADTAVYYCARDGYSSSSGFYYFGMDVWGQGTTVTVSS VL: DIQLTQSPSFLSASVGDRVTITCWASQDINSYLAWYQQKPGKAPKLLIFAASTLQGGVPSRFSGSGSGTEFTLTISSLQPEDFATYYCQHLSSFPPTFGQGTRLEIK | – |

Source: patent publication US20160083466A1 (Regeneron, published 2016)
